Laboratory results published in publication PMC4516351, “Est16, a New Esterase Isolated from a Metagenomic Library of a Microbial Consortium Specializing in Diesel Oil Degradation” (PLoS ONE, 2015).

Experiments:
Experiment in all cases: purified protein
Assay type in all cases: biochemical, uncultured bacterium
[1] = system: T1, CCCCC(=O)Oc1ccc([N+](=O)[O-])cc1; conditions: 50 mM Tris-HCl pH 8.0, 30°C, 0.3% (v/v) triton X-100, 15 nM enzyme
T1 construct: full-length ORF (906 bp, 302 residues), pET28a, N-terminal His6-tag and thrombin site, tag cutting not mentioned; E. coli BL21(DE3); IMAC and SEC

[2] = system: T2, CCCCCCCCCC(=O)Oc1ccc([N+](=O)[O-])cc1; conditions: 50 mM Tris-HCl pH 8.0, 30°C, 0.3% (v/v) triton X-100, 15 nM enzyme
T2 construct: full-length ORF (906 bp, 302 residues), pET28a, N-terminal His6-tag and thrombin site, tag cutting not mentioned; E. coli BL21(DE3); IMAC and SEC

[3] = system: T3, CCCC(=O)Oc1ccc([N+](=O)[O-])cc1; conditions: 50 mM Tris-HCl pH 8.0, 30°C, 0.3% (v/v) triton X-100, 15 nM enzyme
T3 construct: full-length ORF (906 bp, 302 residues), pET28a, N-terminal His6-tag and thrombin site, tag cutting not mentioned; E. coli BL21(DE3); IMAC and SEC

[4] = system: T4, CCCCCCCCCCCC(=O)Oc1ccc([N+](=O)[O-])cc1; conditions: 50 mM Tris-HCl pH 8.0, 30°C, 0.3% (v/v) triton X-100, 50 nM enzyme
T4 construct: full-length ORF (906 bp, 302 residues), pET28a, N-terminal His6-tag and thrombin site, tag cutting not mentioned; E. coli BL21(DE3); IMAC and SEC

[5] = system: T5, CCCCCCCC(=O)Oc1ccc([N+](=O)[O-])cc1; conditions: 50 mM Tris-HCl pH 8.0, 30°C, 0.3% (v/v) triton X-100, 15 nM enzyme
T5 construct: full-length ORF (906 bp, 302 residues), pET28a, N-terminal His6-tag and thrombin site, tag cutting not mentioned; E. coli BL21(DE3); IMAC and SEC

## Est16 (uncultured bacterium)
[1]
  Km: 320.4 ± 32.5 µM
  Vmax: 197 µM/min
  kcat: 211 ± 7.26 s⁻¹
  kcat/Km: 665000 ± 66700 M⁻¹ s⁻¹
[2]
  Km: 1066.0 ± 116.9 µM
  Vmax: 82.7 µM/min
  kcat: 88.4 ± 4.81 s⁻¹
  kcat/Km: 83300 ± 10000 M⁻¹ s⁻¹
[3]
  Km: 225.1 ± 31.8 µM
  Vmax: 206 µM/min
  kcat: 220 ± 9.72 s⁻¹
  kcat/Km: 998000 ± 142000 M⁻¹ s⁻¹
[4]
  Km: 969.5 ± 42.5 µM
  Vmax: 22.9 µM/min
  kcat: 24.5 ± 0.535 s⁻¹
  kcat/Km: 25000 ± 1670 M⁻¹ s⁻¹
[5]
  Km: 628.6 ± 101.4 µM
  Vmax: 128 µM/min
  kcat: 137 ± 9.19 s⁻¹
  kcat/Km: 223000 ± 36700 M⁻¹ s⁻¹
